Test results reported in the DeepSol protein solubility set.

test: soluble on expression in E. coli; label from the status in PepcDB or PDB records

Row | Sequence | soluble on expression in E. coli
1 | MRGSHHHHHHGSVTTKRYTLPPLPYAYNALEPYISAEIMQLHHQKHHQGYVNGANAALEKLEKFRKGEAQIDIRAVLRDLSFHLNGHILHSIFWPNMAPPGKGGGKPGGKIADLINKFFGSFEKFKEEFSQAAKNVEGVGWAILVYEPLEEQLLILQIEKHNLMHAADAQVLLALDVWEHAYYLQYKNDRGSYVDNWWNVVNWDDVERRLQKALNGQIALKL | soluble
2 | MRGSHHHHHHTDPNSPLDEENLTQENQDRGTHVDLGLASANVDFAFSLYKQLVLKAPDKNVIFSPLSISTALAFLSLGAHNTTLTEILKGLKFNLTETSEAEIHQSFQHLLRTLNQSSDELQLSMGNAMFVKEQLSLLDRFTEDAKRLYGSEAFATDFQDSAAAKKLINDYVKNGTRGKITDLIKDLDSQTMMVLVNYIFFKAKWEMPFDPQDTHQSRFYLSKKKWVMVPMMSLHHLTIPYFRDEELSCTVVELKYTGNASALFILPDQDKMEEVEAMLLPETLKRWRDSLEFREIGELYLPKFSISRDYNLNDILLQLGIEEAFTSKADLSGITGARNLAVSQVVHKAVLDVFEEGTEASGTTAVKITLLSALVETRTITRFNRPFLMIIVPTDTQNIFFMSKVTNPKQA | soluble
3 | MRGSVSQEEVKKWAESLENLINHECGLAAFKAFLKSEYSEENIDFWISCEEYKKIKSPSKLSPKAKKIYNEFISVQATKEVNLDSCTREETSRNMLEPTITCFDEAQKKIFNLMEKDSYRRFLKSRFYLDLTNPSSCGAEKQKGAKSSADCTSLVPQCAHHHHHHP | soluble
4 | MRHSLWLLLAAILSLPAQAGTECRDIHDRDLRRMCNALERGDSGDCGDIDSRDMRRYCGALLAPGQRYDCDDIRDGDTRRQCRAIVRGDRKRCDDIDSRDMRRQCRAVVSRAPWQCDGIDDRDMRRICRVILSR | soluble
5 | MRIEVTIAKTSPLPAGAIDALAGELSRRISHHFPENLGNVTVRYATANNLSVIGASKEDKERISEILQETWESADDWFINE | not soluble
6 | MRILSLSFSNLNSLKGEWKIDFSASPFAENGLFAITGPTGAGKTTILDAICLALYHKTPRLGGISTSSNEIMTRGTAECSAEVEFEVKGKAYRAFWSQRRSRGKVDGNLQAATVELAEVDSEKVLATQVKKKDELINTITGLDFSRFTKSMMLSQGQFAAFLNADANDRAGLLEELTGTEIYGQISEKVHEHYTASKQKLAELKAKAEGVELLSEEDKQALIDEQTELQANQKQQQAQL | not soluble
7 | MRILVLGVGNILLTDEAIGVRIVEALEQRYILPDYVEILDGGTAGMELLGDMANRDHLIIADAIVSKKNAPGTMMILRDEEVPALFTNKISPHQLGLADVLSALRFTGEFPKKLTLVGVIPESLEPHIGLTPTVEAMIEPALEQVLAALRESGVEAIPRSDS | soluble
8 | MRILVTNDDGIQSKGIIVLAELLSEEHEVFVVAPDKERSATGHSITIHVPLWMKKVFISERVVAYSTTGTPADCVKLAYNVVMDKRVDLIVSGVNRGPNMGMDILHSGTVSGAMEGAMMNIPSIAISSANYESPDFEGAARFLIDFLKEFDFSLLDPFTMLNINVPAGEIKGWRFTRQSRRRWNDYFEERVSPFGEKYYWMMGEVIEDDDRDDVDYKAVREGYVSITPIHPFLTNEQCLKKLREVYD | soluble
9 | MRIPRIYHPEPLTSHSHIALCEDAANHIGRVLRMGPGQALQLFDGSNQVFDAEITSASKKSVEVKVLEGQIDDRESPLHIHLGQVMSRGEKMEFTIQKSIELGVSLITPLFSERCGVKLDSERLNKKLQQWQKIAIAACEQCGRNRVPEIRPAMDLEAWCAEQDEGLKLNLHPRASNSINTLPLPVERVRLLIGPEGGLSADEIAMTARYQFTDILLGPRVLRTETTALTAITALQVRFGDLG | soluble
10 | MRIQIGELIRSGVLELGDGYRTKRSELSQFGYAIVRAGDVVEIGVTASDSEFVDQRFDKAIGRKTVRLGDVVITTKGTVGRVAEVSKVPNAGLAVYSPQVCYLRSLQPSILHQRYLKYLLMSPATKYSISTFASSSDMAPYLSLSDFKSMVVDLPSLEDQRAIADVLGALDDKIAENQRVIQLSEQLAMTFYRSTEKSESSLTFADVAGIYGGGTPSTKNPDFWDGEIRWATPTDITALKGPWLCGTARSITEEGLSKSSGSLHPEGSILMTSRATVGHVAFIDAPTTTNQGFINLVPQEAYRYWLYFQLKQRTSEFIAWANGATFLELSRGTFKKLPFQACAETELEKFNSVVAPLMKRVLKAQKENQVLAATRDELLPLLMNGKITVAEAKEAAGDVGVVKQNQQEEGDSSV | not soluble
11 | MRITIAGKIGSGKSTVSSELSRITGYTVYSSGTFFRETARKMNMSIEDFNVYSESHPEADYYTDETQKAFMQANDNIIVEGRLAGWISYLNGINAFRIFLYATYYTRLVRFAGRENIDIDSARDLMEKREKSEKERYRKLYGIDVDDLSIYDIVVNTEFMKPPEIAVYIANRIDEMSRKDIFTPRILR | not soluble
12 | MRKFIISFCCYVFFIFTLAAQDKAPHYTVIVSLDAFRWDYPAMYDTPNLNQMAREGVKATMLPSYPASTFPNHYTLATGLVPDHNGIINNTFWDVKRRRQYSMGDPATRNNPDYYLGEPIWITAQKQGVKTGNVYWVGSDIAIKGGYPTYYREYAEKPRLTFEQRVDSTIALLEKPEAERPRLVMLYFEEPDGVTHHHGPRSVEAAAIIHRMDSLVGMLRQGIASLPFGKDVNLIVTADHGMTEISDDRVVDMNKYLRPEWCEAVDGRTPTSIFTKPEYRDSVYNALKDVPHIHVWKKEEIPAELNYGSSDRIGDIVVAPELGWQFTDVPRALKGAHGYFPQSPDMQVMFRACGPDFKAGYESKGFVNVDIYPLLAHLLKITPEKTDGQFERIKDILKDVSFLEHHHHHH | not soluble
13 | MRKICCLLFAVFILCISASCYQRKETRISQPVIMPAIQSPEDIDDYIGEKGYEILESKGKTEEYTLDKKRVYNNWQIWAVQYPEPDHYLGKEISIYSYIIRNHPLDDKSPNKKTYLSVMICENTIIGGYSSPYYEEKDISLVPIGGVYSLEGKNFEEIKNINFDRWRKRFIKKYE | not soluble
14 | MRKIVLLSQIVRPALSSARFVHTSTPLSWQKFENERHFEPGEDVMKRVWHGLSYDFRRWKRRFQEARKDAFKRRHPIAHMKHGTLDNEVFPYRAEIVIIGGGLSGSSTAFWLKERFRDEDFKVVVVENNDVFTKSSTMLSTGGITQQFSIPEFVDMSLFTTEFLRHAGEHLRILDSEQPDINFFPTGYLRLAKTDEEVEMMRSAWKVQIERGAKVQLLSKDELTKRYPYMNVDDVLLASLGVENEGTIDTWQLLSAIREKNITLGVQYVKGEVEGFQFERHRASSEVHAFGDDATADENKLRAQRISGVLVRPQMNDASARPIRAHLIVNAAGPWAGQVAKMAGIGKGTGLLAVPVPIQPRKRDVFVIFAPDVPSDLPFIIDPSTGVFCRQTDSGQTFLVGRTPSKEEDAKRDHSNLDVDYDDFYQKIWPVLVDRVPGFQTAKVKSAWSGYQDINTFDDAPVIGEHPLYTNLHMMCGFGERGVMHSMAAARAYAERIFDGAYINVNLRKFDMRRIVKMDPITEPCRL | not soluble
15 | MRKQKNRQRNRGRSQEIALFLDPLATSLKWLQAGRQITTEAFHNPEAGENQYRLISSGFRLSIFGRGAVRQGMNKERFTILLGGDVAVSDRLKRAVVNSRVIAADGGMRHATPLGLTPELWVGDFDSANQELLDAWPDVTRQPYPAAKAVTDGEIAVSEALLRGAHSLLLVGALGGARSDHALQHLLYAVALAERGFEVTLTSGEEEARPLLAGSLAIDLPAGSLFSVAGFTALEGLDIGNVRYPLNDFALAFGSSRTISNVANGGPVHFSLKSGKAIVLARPYDLTGALEHHHHHH | soluble
16 | MRKYAAIALCTSAILAGCNTSNVSQEPKKEKKVQEVAIQKEALQEQGKISYTPITHESTNTSIHITDLKDSLNEVQYKIWRTADGKERAKSFSSKEKEKQFTIPFDIKEFEGKRGEFQIEATGMKEDGKTIPLTKSIITFEQKVPVLMYHAIDDYHGQGIKDLFVSPANFEAQMKHLKDNGYTLLTFERWGDINKVNKPIFVTFDDGMKNNMNAFRVLQKLKDDTFKPAATEYMIVDNVDVEGALSTSEIKEMVDSGIFSVQSHTATHADLPKITNYEEELKGSKEKLEKITGKPVIAIAYPFGHVDDKVVTETKKYYQFATTTKPGQFITKGEPDELLKMKRVRIHHTTTVEQFASSIK | not soluble
17 | MRKYRLSEEQRAFSYQEDGTKKSVLLRQIIAISDFNDVIAGTAGGWIDRETVLAQEGNCWIYDQNAIAFGGTVISGNTRITGTSVLWGEVYATDNVWIDNSEISQGAYISDSVTIHDSLVYVQCRIFGHALIDQHSMIVAAQGLTPDHQLLLQIYDRARVSASRIVHQAQIYGDAVVRYAFIEHRAEVFDFASVEGNEENNVWLCDCAKVYGHAQVKAGIEEDAIPTIHYSSQVAEYAIVEGNCVLKHHVLIGGNAVVRGGPILLDEHVVIQGESRITGAVIIENHVELTDHAVVEAFDGDTVHVRGPKVINGEERITRTPLAGLLLEHHHHHH | not soluble
18 | MRLDYALFSQHLVNSREKAKALVLKNQVLVNKMVVSKPSFIVKENDKIELIAEKLFVSRAGEKLGAFLETHFVDFKGKVVLDVGASKGGFSQVALLKGAKRVLCVDVGKMQLDESLKQDKRIECYEECDIRGFKTPETIDLALCDVSFISLYYILEAILPLSDEFLTLFKPQFEVGRGIKRNKKGVVVDKEAILNALENFKNHLKTKDFQILKIQESLVKGKNGNVEFFIHFKRA | not soluble
19 | MRLEKFIHLLGERGFDGALISPGTNLYYLTGLRLHEVGERLAILAVSAEGDYRFLAPSLYENVVNNFPATFWHDGENPYAKLREILEELGISKGRILIEDTMRADWLIGIMKLGKFTFQPLSSLIKELRMIKDKEEVKMMEHASRIADKVFEEILTWDLIGMKERELALKIELLIRELSDGIAFEPIVASGENAANPHHEPGERKIRKGDIIILDYGARWKGYCSDITRTIGLGELDERLVKIYEVVKDAQESAFKAVREGIKAKDVDSRAREVISKAGYGEYFIHRTGHGLGLDVHEEPYIGPDGEVILKNGMTFTIEPGIYVPGLGGVRIEDDIVVDEGKGRRLTKAERELIIL | soluble
20 | MRLFIVQAMFTEYRPTHGYDEYFCREQSAPRADLEPLLSSLGAMGLAELNRSHASASNLLRRLGATFRLNGSGLHGGERILPFDPLPRLIHRQEWSVLERGLVQRLEAIDQFLADVYGPQRILNDGVIPREDVESSQGWRPQMQDIAVPLNRWCHISGLDLIRDGDGTWRVLEDNLRCPSGVAYFLENRRVMKRLFPSLFQGRTVQPIDDYPSHLLRTLQDLAPWSDAPRVVLLTPGVFNSAYFEHSYLAQQMGIALVEGRDLICEDGRVWMRSTAGREPVDVIYRRIDDDFLDPNVFRRDSMLGVPGLIDAMRSGRVAIANAPGSGVADDKLIYAYVPAMIRYYLNEEPIIDNVPTYLCSRDDDRRYVLEHLNELVVKSVAEAGGYGMLIGPHASSEEIESFAVKIKAHPRNFIAQPTLQLSTVPSLSEGELYPCHVDLRPYVLRGKSDWVSPGGLTRVALKRGSLVVNSSQGGGCKDTWVVSDSAVTAGNQELVPC | not soluble
21 | MRLRLALFSSLLAATFAITGCDQSSETPDNAATISIEHAQGTTLVPLNPQKVVILNPSVLDNADALHIKVAGVPQTSTHLPAFLSKYSGPEYMNTGTLFEPDYEALSQAKPDLIIAGGRAQDAYNKLSAIAPTIALDVDTQHFTQSLTQRTEQLASIFGKEEEAKTLLGNFSSQVNAIKQKSANAGSAMVLMISGGKMSAYTPGSRFGFIFDELGFTPAATFAESGRHGNVVTSEFILNANPDWLFVLDRDNAIGRTEGQSAQQVLDNPLIHKTKAWQNDRIVYLDSASLYIAGGVQSYTQLMNKVSAILDKPVSEQ | not soluble
22 | MRLTEGIVVDSVLTFGKLRFSALRREVRKQNEDGTVSNEVKERTYNLKSSAQGRMIQVSIPANVPLREFAYDAEVELVNPIVDTVANYVFREGTTVNWFIKADDLVLKRQPNQGNSTNQIEGKK | not soluble
